Test results as given in IntAct's records for PubMed 18940603.

B1: Ras-related protein Rab-27A (Mus musculus), Q9ERI2 (parent)
chain: MSDGDYDYLIKFLALGDSGVGKTSVLYQYTDGKFNSKFITTVGIDFREKRVVYRANGPDGAVGRGQRIHLQLWDTAGQERFRSLTTAFFRDAMGFLLLFDLTNEQSFLNVRNWISQLQMHAYCENPDIVLCGNKSDLEDQRAVKEEEARELAEKYGIPYFETSAANGTNISHAIEMLLDLIMKRMERCVDKSWIPEGVVRSNGHTSADQLSEEKEKGLCGC
partner: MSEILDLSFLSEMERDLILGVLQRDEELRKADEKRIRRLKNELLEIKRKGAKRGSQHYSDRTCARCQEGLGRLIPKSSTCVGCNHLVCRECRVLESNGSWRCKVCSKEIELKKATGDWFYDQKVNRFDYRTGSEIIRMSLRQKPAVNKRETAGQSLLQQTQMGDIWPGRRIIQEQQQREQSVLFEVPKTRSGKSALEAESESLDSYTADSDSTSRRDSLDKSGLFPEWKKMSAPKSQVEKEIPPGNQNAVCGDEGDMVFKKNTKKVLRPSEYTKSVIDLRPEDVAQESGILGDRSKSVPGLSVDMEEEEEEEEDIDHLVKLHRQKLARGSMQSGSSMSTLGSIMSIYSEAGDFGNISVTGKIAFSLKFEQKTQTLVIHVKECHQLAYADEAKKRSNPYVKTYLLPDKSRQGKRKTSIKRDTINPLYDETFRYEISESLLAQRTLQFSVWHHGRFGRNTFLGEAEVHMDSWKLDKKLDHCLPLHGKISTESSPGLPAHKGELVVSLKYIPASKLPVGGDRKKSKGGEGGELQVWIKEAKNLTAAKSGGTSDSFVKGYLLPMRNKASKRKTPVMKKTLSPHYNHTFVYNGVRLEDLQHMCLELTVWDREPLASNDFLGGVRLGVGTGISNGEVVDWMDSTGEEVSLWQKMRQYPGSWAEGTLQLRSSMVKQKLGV
B2: Ras-related protein Rab-27A (Mus musculus), Q9ERI2 (parent)
chain: B1 chain
partner: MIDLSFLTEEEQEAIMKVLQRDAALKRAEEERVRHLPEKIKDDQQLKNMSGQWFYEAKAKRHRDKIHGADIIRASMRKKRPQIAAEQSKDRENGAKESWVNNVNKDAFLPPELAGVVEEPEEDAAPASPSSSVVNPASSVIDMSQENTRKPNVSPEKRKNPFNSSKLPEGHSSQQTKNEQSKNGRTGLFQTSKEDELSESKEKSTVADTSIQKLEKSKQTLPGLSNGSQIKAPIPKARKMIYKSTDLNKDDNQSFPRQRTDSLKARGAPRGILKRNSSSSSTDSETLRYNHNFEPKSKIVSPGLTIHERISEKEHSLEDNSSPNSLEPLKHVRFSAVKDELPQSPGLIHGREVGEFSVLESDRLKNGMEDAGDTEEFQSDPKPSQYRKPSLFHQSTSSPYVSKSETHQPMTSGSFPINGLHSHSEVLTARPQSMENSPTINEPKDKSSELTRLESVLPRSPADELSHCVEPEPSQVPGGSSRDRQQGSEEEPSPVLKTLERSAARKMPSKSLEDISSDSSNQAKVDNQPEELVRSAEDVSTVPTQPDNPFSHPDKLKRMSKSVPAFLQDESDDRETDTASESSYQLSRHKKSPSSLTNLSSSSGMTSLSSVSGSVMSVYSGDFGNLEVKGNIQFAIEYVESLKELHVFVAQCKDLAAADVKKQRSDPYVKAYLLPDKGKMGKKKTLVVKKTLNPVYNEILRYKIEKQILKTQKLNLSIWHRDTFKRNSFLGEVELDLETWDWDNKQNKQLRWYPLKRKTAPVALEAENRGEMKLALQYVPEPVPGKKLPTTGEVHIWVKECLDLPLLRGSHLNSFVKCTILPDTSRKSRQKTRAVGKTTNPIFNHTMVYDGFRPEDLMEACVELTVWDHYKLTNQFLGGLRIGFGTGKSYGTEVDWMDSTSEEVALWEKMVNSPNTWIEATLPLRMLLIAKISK
B3: Ras-related protein Rab-27B (Mus musculus), Q99P58 (parent)
chain: MTDGDYDYLIKLLALGDSGVGKTTFLYRYTDNKFNPKFITTVGIDFREKRVVYDTQGADGASGKAFKVHLQLWDTAGQERFRSLTTAFFRDAMGFLLMFDLTSQQSFLNVRNWMSQLQANAYCENPDIVLIGNKADLPDQREVNERQARELAEKYGIPYFETSAATGQNVEKSVETLLDLIMKRMEKCVEKTQVPDTVNGGNSGKLDGEKPAEKKCAC
partner: B2 partner
B4: Ras-related protein Rab-27A (Mus musculus), Q9ERI2 (parent)
chain: B1 chain
partner: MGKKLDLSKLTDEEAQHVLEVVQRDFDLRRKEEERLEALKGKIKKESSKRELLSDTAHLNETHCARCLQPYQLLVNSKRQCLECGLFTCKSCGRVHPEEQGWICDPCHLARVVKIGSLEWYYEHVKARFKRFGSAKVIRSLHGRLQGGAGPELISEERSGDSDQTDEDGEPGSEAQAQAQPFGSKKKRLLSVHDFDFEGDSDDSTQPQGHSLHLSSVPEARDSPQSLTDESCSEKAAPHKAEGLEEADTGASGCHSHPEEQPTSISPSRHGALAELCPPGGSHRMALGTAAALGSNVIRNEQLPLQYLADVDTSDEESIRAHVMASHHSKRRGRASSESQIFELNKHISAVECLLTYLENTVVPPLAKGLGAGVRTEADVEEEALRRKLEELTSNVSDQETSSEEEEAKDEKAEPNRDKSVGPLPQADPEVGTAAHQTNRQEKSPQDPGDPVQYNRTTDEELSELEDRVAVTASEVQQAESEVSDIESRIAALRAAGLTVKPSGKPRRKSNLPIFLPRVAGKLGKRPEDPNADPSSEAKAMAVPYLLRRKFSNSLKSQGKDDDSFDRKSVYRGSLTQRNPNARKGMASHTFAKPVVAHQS
B5: Ras-related protein Rab-27B (Mus musculus), Q99P58 (parent)
chain: B3 chain
partner: B1 partner
B6: Ras-related protein Rab-27B (Mus musculus), Q99P58 (parent)
chain: B3 chain
partner: B4 partner

Variants of: B1
Settings: with Sytl4, Q9R0Q1-1

Variant | effect of a mutation on the interaction
C188S | increasing interaction
C123S;C188S | increasing interaction
C123S | increasing interaction

Variants of: B2
Settings: with sytl2_human SYTL2, Q9HCH5

Variant | effect of a mutation on the interaction
C123S;C188S | increasing interaction

Variants of: B3
Settings: with sytl2_human SYTL2, Q9HCH5

Variant | effect of a mutation on the interaction
C123S;C188S | increasing interaction

Variants of: B4
Settings: with melph_human MLPH

Variant | effect of a mutation on the interaction
C188S | increasing interaction
C123S;C188S | increasing interaction

Variants of: B5
Settings: with Sytl4, Q9R0Q1-1

Variant | effect of a mutation on the interaction
C123S;C188S | increasing interaction
C123S | increasing interaction
C188S | increasing interaction

Variants of: B6
Settings: with melph_human MLPH

Variant | effect of a mutation on the interaction
C123S;C188S | increasing interaction
C188S | increasing interaction
